Laboratory results from the supplement of paper PMC9112550, “Optimization of the antimicrobial peptide Bac7 by deep mutational scanning” (BMC Biology, 2022).

What follows are sequences tested on Escherichia coli TOP10 (assay: shrunken log2 fold change of peptide-encoding DNA abundance (4.5 h post-induction vs induction); higher = less antimicrobial activity (less host growth inhibition)). Settings: time post-induction: 4.5 h; library: site-saturation at positions 5, 18, 19, 20.
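Note: peptides expressed intracellularly from a pBAD plasmid library in pooled LB shake-flask culture, induced with 0.3% L-arabinose, DNA abundance read by NGS, three biological replicates, DESeq2 with apeglm shrinkage.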

Sequence	shrunken log2 fold change
RRIRSRPPRLPRPRPRPERHPRP	0.0386
RRIRERPPRLPRPRPRPWWSPRP	-0.0183
RRIRTRPPRLPRPRPRPICFPRP	-0.583
RRIRMRPPRLPRPRPRPAYKPRP	0.0601
RRIRFRPPRLPRPRPRPINTPRP	-0.761
RRIRTRPPRLPRPRPRPYKRPRP	-0.29
RRIRIRPPRLPRPRPRPQELPRP	-0.169
RRIRQRPPRLPRPRPRPDEQPRP	0.0145
RRIRVRPPRLPRPRPRPWKYPRP	-0.0321
RRIRRRPPRLPRPRPRPFPQPRP	0.441
RRIRWRPPRLPRPRPRPIQRPRP	0.0678
RRIRYRPPRLPRPRPRPIVMPRP	-0.254
RRIRLRPPRLPRPRPRPSITPRP	-0.436
RRIRNRPPRLPRPRPRPKAPPRP	-0.0518
RRIRGRPPRLPRPRPRPKYQPRP	0.159
RRIRSRPPRLPRPRPRPWSKPRP	-0.405
RRIRMRPPRLPRPRPRPRGIPRP	0.0677
RRIRLRPPRLPRPRPRPMTFPRP	-0.263
RRIRLRPPRLPRPRPRPTVSPRP	0.0646
RRIRGRPPRLPRPRPRPQLTPRP	0.644
RRIRDRPPRLPRPRPRPAGWPRP	1.05
RRIRPRPPRLPRPRPRPIPLPRP	-0.191

Sequence	shrunken log2 fold change
RRIRMRPPRLPRPRPRPKYDPRP	0.114
RRIRLRPPRLPRPRPRPEHHPRP	-0.156
RRIRHRPPRLPRPRPRPWAFPRP	0.0477
RRIRCRPPRLPRPRPRPHMQPRP	-0.322
RRIRIRPPRLPRPRPRPKPWPRP	0.192
RRIRCRPPRLPRPRPRPGYSPRP	-0.483
RRIRLRPPRLPRPRPRPMCPPRP	0.128
RRIRTRPPRLPRPRPRPFRKPRP	-0.0396
RRIRNRPPRLPRPRPRPYMLPRP	-0.14
RRIRVRPPRLPRPRPRPKIIPRP	-0.645
RRIRHRPPRLPRPRPRPMTIPRP	-0.081
RRIRLRPPRLPRPRPRPDCFPRP	0.19
RRIRQRPPRLPRPRPRPRHDPRP	0.0818
RRIRIRPPRLPRPRPRPVCKPRP	-0.21
RRIRQRPPRLPRPRPRPKPHPRP	0.167
RRIRSRPPRLPRPRPRPCPFPRP	-0.138
RRIRKRPPRLPRPRPRPIWGPRP	-0.0432
RRIRFRPPRLPRPRPRPTKVPRP	-0.157
RRIRYRPPRLPRPRPRPYKDPRP	-0.748
RRIRKRPPRLPRPRPRPEHEPRP	1.09
RRIRLRPPRLPRPRPRPKECPRP	-0.0179
RRIRIRPPRLPRPRPRPNRGPRP	-0.203

Sequence	shrunken log2 fold change
RRIRSRPPRLPRPRPRPLMKPRP	0.0556
RRIRTRPPRLPRPRPRPRHAPRP	0.329
RRIRVRPPRLPRPRPRPGMPPRP	0.0671
RRIRHRPPRLPRPRPRPLMYPRP	-0.711
RRIRFRPPRLPRPRPRPVVMPRP	0.297
RRIRVRPPRLPRPRPRPDGWPRP	0.223
RRIRMRPPRLPRPRPRPEVRPRP	0.438
RRIRNRPPRLPRPRPRPRMQPRP	-0.0634
RRIRGRPPRLPRPRPRPNTMPRP	0.0452
RRIRERPPRLPRPRPRPATGPRP	-0.0619
RRIRVRPPRLPRPRPRPMWSPRP	-0.0513
RRIRQRPPRLPRPRPRPDEEPRP	-0.0445
RRIRNRPPRLPRPRPRPNIEPRP	-0.027
RRIRYRPPRLPRPRPRPWWAPRP	-0.19
RRIRSRPPRLPRPRPRPQSDPRP	-0.0499
RRIRIRPPRLPRPRPRPAEMPRP	0.0228
RRIRARPPRLPRPRPRPGQHPRP	-0.0452
RRIRNRPPRLPRPRPRPFWNPRP	-0.151
RRIRARPPRLPRPRPRPWFSPRP	-0.00399
RRIRVRPPRLPRPRPRPFPLPRP	-0.566
RRIRSRPPRLPRPRPRPQEWPRP	0.0425
RRIRDRPPRLPRPRPRPPTVPRP	0.381

Sequence	shrunken log2 fold change
RRIRARPPRLPRPRPRPQFVPRP	-0.0892
RRIRNRPPRLPRPRPRPKHVPRP	-0.0669
RRIRRRPPRLPRPRPRPATEPRP	0.421
RRIRGRPPRLPRPRPRPKDLPRP	-0.0839
RRIRYRPPRLPRPRPRPGASPRP	-0.313
RRIRMRPPRLPRPRPRPLEWPRP	0.31
RRIRVRPPRLPRPRPRPDYLPRP	-0.222
RRIRTRPPRLPRPRPRPKWDPRP	-0.0626
RRIRIRPPRLPRPRPRPNGIPRP	-0.337
RRIRQRPPRLPRPRPRPPWTPRP	0.0238
RRIRPRPPRLPRPRPRPYADPRP	0.0774
RRIRDRPPRLPRPRPRPHPKPRP	-0.149
RRIRHRPPRLPRPRPRPAIEPRP	0.0588
RRIRKRPPRLPRPRPRPEKEPRP	0.139
RRIRHRPPRLPRPRPRPVMPPRP	0.189
RRIRDRPPRLPRPRPRPPRCPRP	0.551
RRIRGRPPRLPRPRPRPQSVPRP	-0.199
RRIRKRPPRLPRPRPRPIQKPRP	0.0671
RRIRIRPPRLPRPRPRPQVVPRP	-0.0262
RRIRERPPRLPRPRPRPCLRPRP	0.0836
RRIRTRPPRLPRPRPRPIYTPRP	-0.46
RRIRERPPRLPRPRPRPRVFPRP	0.138

Sequence	shrunken log2 fold change
RRIRMRPPRLPRPRPRPEWGPRP	0.437
RRIRQRPPRLPRPRPRPECWPRP	0.358
RRIRCRPPRLPRPRPRPQLSPRP	0.122
RRIRPRPPRLPRPRPRPGQEPRP	0.031
RRIRIRPPRLPRPRPRPKPMPRP	-0.0736
RRIRPRPPRLPRPRPRPCFGPRP	1.01
RRIRMRPPRLPRPRPRPVKAPRP	-0.0481
RRIRCRPPRLPRPRPRPATFPRP	-0.331
RRIRCRPPRLPRPRPRPCYRPRP	-0.256
RRIRRRPPRLPRPRPRPPRCPRP	1.49
RRIRPRPPRLPRPRPRPQSLPRP	-0.288
RRIRGRPPRLPRPRPRPSLCPRP	1.73
RRIRMRPPRLPRPRPRPAQVPRP	-0.0213
RRIRVRPPRLPRPRPRPNQSPRP	0.00904
RRIRTRPPRLPRPRPRPTMDPRP	-0.436
RRIRGRPPRLPRPRPRPYNWPRP	-0.225
RRIRRRPPRLPRPRPRPRISPRP	0.482
RRIRPRPPRLPRPRPRPMIMPRP	-0.0291
RRIRKRPPRLPRPRPRPTFPPRP	0.0736
RRIRMRPPRLPRPRPRPNDAPRP	0.317
RRIRIRPPRLPRPRPRPAWIPRP	-0.187
